Measured values as given in patent US20170128554A1 (NEW ENGLAND BIOLABS, published 2017).
Positions count from the first letter of the chain named. Names may count otherwise.

B1: SNAP-Fbs (wild type Fbs sugar binding domain fused to SNAP-tag) (other)
chain: MGSSHHHHHHGDKDCEMKRTTLDSPLGKLELSGCEQGLHEIKLLGKGTSAADAVEVPAPAAVLGGPEPLMQATAWLNAYFHQPEAIEEFPVPALHHPVFQQESFTRQVLWKLLKVVKFGEVISYQQLAALAGNPAATAAVKTALSGNPVPILIPCHRVVSSSGAVGGYEGGLAVKEWLLAHEGHRLGKPGLGPAAIGAPGSGSGSPAGCQQEGLVPEGGVEEERDHWQQFYFLSKRRRNLLRNPCGEEDLEGWCDVEHGGDGWRVEELPGDSGVEFTHDESVKKYFASSFEWCRKAQVIDLQAEGYWEELLDTTQPAIVVKDWYSGRSDAGCLYELTVKLLSEHENVLAEFSSGQVAVPQDSDGGGWMEISHTFTDYGPGVRFVRFEHGGQDSVYWKGWFGARVTNSSVWVEP
notes: also called SNAP-wtFbs; wtFbs
B2: SNAP-tagged Fbs GYR mutant conjugated to BG beads (other)
chain: B1 chain with S272G, F290Y, E291R
notes: also called S155G+YR
B3: SNAP-tagged Fbs PPRYR mutant conjugated to BG beads (other)
chain: B1 chain with D271P, S272P, G273R, F290Y, E291R

How the values were obtained:
[1] = target: Sialylglycopeptide (SGP, Fushimi Pharmaceutical Co.); experiment: isothermal titration calorimetry, […] (2 M NaCl), […]
[2] = target: Sialylglycopeptide (SGP, Fushimi Pharmaceutical Co.); experiment: isothermal titration calorimetry, […] (50 mM NaCl), […]
[3] = target: T1, SGP-TMR (sialylglycopeptide labeled with two tetramethylrhodamine fluorophores); experiment: SGP-TMR pull-down on Fbs beads, low salt volatile buffer, fluorescence
T1 construct: also called sialylated SGP
Experimental: SNAP-Fbs is efficiently conjugated to BG beads (SNAP Capture Pull-Down resin (New England Biolabs, Ipswich, Mass.): SNAP-Fbs protein is reacted with BG beads at 4° C. overnight in a DTT-containing buffer (4 mM DTT, 20 mM tris-HCl pH 7.5, 1 mM EDTA, 50 mM NaCl). After the conjugation reaction, SNAP-Fbs beads are washed with 40× bead volume of low salt buffer.
Fbs binding to complex N-glycan linked glycomolecules is substantially unbiased in a high salt buffer. SGP was labeled with two tetramethylrhodamine (TMR) fluorophores on the peptide portion via lysine residues according to the TMR protein labeling kit protocol (Genaxxon Bioscience, Ulm Germany). After TMR labeling, a fraction of the SGP-TMR sample was processed with neuraminidase (New England Biolabs, Ipswich, Mass.) to remove terminal sialic acid residues. Two binding conditions (LS, low salt buffer and HS, high salt buffer) were tested. […] TMR Fluorescence in the supernatant was measured using a SpectraMax M5 fluorometer (excitation 555 nm and emission 595 nm with 590 nm cutoff). Binding of SGP-TMR to Fbs (y-axis) is determined by subtracting the fluorescence measured in the bead supernatant from the input fluorescence.
SGP-TMR affinity to the Fbs in low salt volatile buffer was analyzed by a pull-down assay using SNAP Capture Pull-Down resin conjugated with equal amounts of WT, GYR or PPRYR Fbs proteins (FIG. 10B). […]

Binder	Kd [1]	Kd [2]	fold increased affinity, against WT Fbs [3]
B1	1.43 µM	3 µM	
B2			3 fold
B3			2 fold
